Experimental data as given in patent US20250215058A1 (CHILDREN S MEDICAL CENTER, published 2025).

Assays:
GST-Epx2 = GST-Epx2 (E. faecium, UniProt P08515 1-218 = GST); assay: GST pull-down from lysates of transfected HEK293 cells, anti-FLAG immunoblot
GST-Epx3 = GST-Epx3 (E. faecalis, UniProt P08515 1-218 = GST); assay: as above
GST-Epx3, sequence (P08515 1-218, tags or fused parts left off): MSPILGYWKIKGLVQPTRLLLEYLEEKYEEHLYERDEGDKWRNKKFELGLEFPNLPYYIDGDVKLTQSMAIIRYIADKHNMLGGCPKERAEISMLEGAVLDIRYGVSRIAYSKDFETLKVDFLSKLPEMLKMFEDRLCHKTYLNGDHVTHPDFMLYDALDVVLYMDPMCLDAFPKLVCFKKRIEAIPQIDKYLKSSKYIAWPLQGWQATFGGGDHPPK

GST-Epx2, sequence (P08515 1-218, tags or fused parts left off): as above

Binder | binding result (GST-Epx2) | binding result (GST-Epx3)
HLA-A (full length, 3× FLAG tagged, expressed in HEK293 cells) (receptor, also called HLA-A alone; not shown: triple-FLAG tag) MHC heavy: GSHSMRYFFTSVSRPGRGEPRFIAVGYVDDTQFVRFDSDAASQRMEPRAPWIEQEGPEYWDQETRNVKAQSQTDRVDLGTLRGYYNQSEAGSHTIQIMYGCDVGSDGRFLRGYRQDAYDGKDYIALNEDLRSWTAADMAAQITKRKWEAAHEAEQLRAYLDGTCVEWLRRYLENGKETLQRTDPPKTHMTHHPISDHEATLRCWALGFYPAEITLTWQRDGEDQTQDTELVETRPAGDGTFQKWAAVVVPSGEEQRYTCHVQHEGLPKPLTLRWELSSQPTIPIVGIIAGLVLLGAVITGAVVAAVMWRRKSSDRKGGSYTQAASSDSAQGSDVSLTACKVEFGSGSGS | no binding | no binding
HLA-B (full length, FLAG-tagged, expressed in HEK293 cells) (receptor, also called HLA-B alone; not shown: triple-FLAG tag) MHC heavy: GSHSMRYFYTSVSRPGRGEPRFISVGYVDDTQFVRFDSDAASPREEPRAPWIEQEGPEYWDRNTQIYKAQAQTDRESLRNLRGYYNQSEAGSHTLQSMYGCDVGPDGRLLRGHDQYAYDGKDYIALNEDLRSWTAADTAAQITQRKWEAAREAEQRRAYLEGECVEWLRRYLENGKDKLERADPPKTHVTHHPISDHEATLRCWALGFYPAEITLTWQRDGEDQTQDTELVETRPAGDRTFQKWAAVVVPSGEEQRYTCHVQHEGLPKPLTLRWEPSSQSTVPIVGIVAGLAVLAVVVIGAVVAAVMCRRKSSGGKGGSYSQAACSDSAQGSDVSLTAEFGSGSGS | no binding | no binding
HLA-C (full length, FLAG-tagged, expressed in HEK293 cells) (receptor, also called HLA-C alone; not shown: triple-FLAG tag) MHC heavy: CSHSMRYFDTAVSRPGRGEPRFISVGYVDDTQFVRFDSDAASPRGEPRAPWVEQEGPEYWDRETQKYKRQAQADRVSLRNLRGYYNQSEDGSHTLQRMSGCDLGPDGRLLRGYDQSAYDGKDYIALNEDLRSWTAADTAAQITQRKLEAARAAEQLRAYLEGTCVEWLRRYLENGKETLQRAEPPKTHVTHHPLSDHEATLRCWALGFYPAEITLTWQRDGEDQTQDTELVETRPAGDGTFQKWAAVVVPSGQEQRYTCHMQHEGLQEPLTLSWEPSSQPTIPIMGIVAGLAVLVVLAVLGAVVTAMMCRRKSSGGKGGSCSQAACSNSAQGSDESLITCKAEFGSGSGS | no binding | no binding
